Patent US20140147444A1 (published 2014)
Values joined by “and” are separate entries in the source; they are usually repeats but may differ in a detail not shown here. Equal entries are not always repeated.

Experiments:
[1] = target: T1, human OPGbp [143-317] (human, UniProt O14788 143-317); assay: SPR (BIAcore), OPGbp on CM5 chip (80 RU)
T1 construct: also called OPGL
T1 sequence (looked up): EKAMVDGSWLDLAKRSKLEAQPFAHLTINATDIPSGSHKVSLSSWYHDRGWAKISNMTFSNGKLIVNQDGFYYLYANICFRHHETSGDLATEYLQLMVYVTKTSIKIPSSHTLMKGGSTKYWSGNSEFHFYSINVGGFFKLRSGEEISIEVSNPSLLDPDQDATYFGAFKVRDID
Experimental: (§1) The binding constant (Kd), on rate constant (ka) and off rate constant (kd) for Fabs “AT” and “Y” and “AT” antibody were determined by surface plasmon resonance techniques (BIAcore, Pharmacia, Piscataway, N.J.) and the results are shown in Table II. Fabs were prepared as described in Example 4 and “AT” antibody prepared as described in Example 7. OPGbp was immobilized on a CM5-chip by standard amine coupling. The Kd and rate constants were determined by BIAEVALUATION 3.0 software (Pharmacia).

[2] = target: T2, murine OPGbp[158-316] (murine, UniProt O35235 158-316); assay: EIA on plates coated with murine OPGbp[158-316]
T2 sequence: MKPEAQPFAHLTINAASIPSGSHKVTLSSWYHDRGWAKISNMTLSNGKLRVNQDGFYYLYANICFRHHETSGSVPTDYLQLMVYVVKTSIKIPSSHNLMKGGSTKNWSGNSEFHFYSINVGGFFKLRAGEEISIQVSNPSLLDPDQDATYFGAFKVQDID
Experimental: After overnight incubation, the protein solutions were removed from the plate and 200 μl of 5% Chicken Serum (Gibco/BRL Cat#16110-082) in PBST (PBS plus 0.05% Tween 20) was added to each well of the plate and plates were incubated at room temperature (RT) for 90 min with agitation. After incubation and blocking, plates were washed 4 times with 1×K-P wash solution in dH₂O (Cat#50-63-00, Kirkegaard & Perry Laboratories) and dried. […] Plates were incubated for three hours at room temperature with agitation, washed four times with 1× K-P wash solution and dried. Goat anti-human IgG (Fc) (Jackson ImmunoResearch, Cat#109-036-098) was diluted 1:5000 in 5% Chicken Serum in PBST and 100 μl was added to each well. […] 100 μl of undiluted ABTS substrate (Kirkegaard & Perry; Cat#50-66-00) was added to each well and the dish was incubated at room temperature until sufficient blue-green color developed. Color development was stopped by addition of 100 μl 1% SDS. Quantitation of color development was performed using a microtiter plate reader with detection at 405 nm.

[3] = target: T1, human OPGbp [143-317]; assay: SPR (BIAcore), OPGbp on CM5 chip (47 RU)
Experimental: as §1

[4] = target: T1, human OPGbp [143-317]; assay: cell-based or functional assay
[5] = target: T1, human OPGbp [143-317]; assay: SPR (BIAcore), immobilized OPGbp [143-317]
[6] = target: T1, human OPGbp [143-317]; assay: SPR (BIAcore), OPGbp on CM5 chip (147 RU)
Experimental: as §1

Kd [1]: 0.33 nM
koff [1]: 0.0027 s⁻¹
kon [1]: 8.1e+06 M⁻¹ s⁻¹
Kd [3]: 0.43 nM
koff [3]: 0.0031 s⁻¹
kon [3]: 7.3e+06 M⁻¹ s⁻¹
RAW cell assay, IC50, preparation “AT”405 [4]: 3 ug/ml and 20.1 nM
RAW cell assay, IC50, preparation “AT”406 [4]: 60.3 nM and 9 ug/ml
RAW cell assay, IC50, preparation “AT”407 [4]: 21.4 nM and 3.2 ug/ml
bone marrow assay, inhibition of TRAP formation, IC50, preparation “AT”406 [4]: 2.35 µg/ml and 14.4 nM
murine bone marrow assay, IC50, preparation “AT”405 [4]: 2.15 ug/ml and 14.4 nM
murine bone marrow assay, IC50, preparation “AT”407 [4]: 1.85 ug/ml and 12.5 nM
Kd [5]: 1.18 nM
koff [5]: 0.002 s⁻¹
kon [5]: 1.7e+06 M⁻¹ s⁻¹
Kd [6]: 0.42 nM
koff [6]: 0.0024 s⁻¹
kon [6]: 5.7e+06 M⁻¹ s⁻¹
B1: “AT” antibody (full-length human IgG1) (antibody, V domains shown)
VH: QVQLVQSGAEVRKPGASVKVSCKASGYDFSNYAIHWVRQAPGQRLEWMGWINAGNGNTKFSQKFQGRITVTRDTAASTAYMELRSLRSEDTAVYYCARDSSNMVRGIIIAYYFDYWGQGTLVTVSS
VL: EIVMTQSPSSLSASVGDRVTITCRASQSISRYLNWYQLKPGKAPRLLIYGASSLQSGVPSRFSGSGSGAEFTLTISSLQPEDIATYYCQHTRAFGQGTKVEIKR
notes: Expressed in CHO cells; also called “AT” Ab; not shown: human IgG1 CH1, hinge, CH2 and CH3
binding result [2]: no binding (tested: 2 ug/ml down to 1.953 ng/ml)
